Test results published in the nanobody polyreactivity screen of Harvey et al. (2022).

Assay: yeast display, Sf9 membrane polyspecificity reagent, FACS + sequencing; frameworks hold sequencing errors
Summary of the method: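 Galactose induction of a Saccharomyces cerevisiae BJ5465 synthetic nanobody display library ran 36–48 hours. The cells were then stained for 1 hour at 4 °C with 10% biotinylated, detergent-solubilized Sf9 membrane reagent, pulled down on streptavidin microbeads and FACS-sorted into low and high (top ~1%) gates on expression and reagent-binding fluorescence. Labels for polyreactivity follow the gate of origin.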

| Sequence | polyreactivity (PSR sort gate) |
| --- | --- |
| QVQLVESGGGLVQAGGSLRLSCAASGRTFVNYAMGWYSQAPGKERELVAAISWTDDDTYYADSVKGRFTISRDNAKNTVYLQMNSLKPEDTAVYYCATDYDSYDYWGQGTQVTVSS | low polyreactivity |
| QVQLVESGGGLVQAGGSLRLSCAASGRTFVNYTMGWYRQAPGKEWELVAAIRYRDGSTYYADSVKGRFTISRDYAKNTVYLQMNSLKPEDTAVYYCNTRITQVGDYIYDYWGQGTQVTVSS | low polyreactivity |
| QVQLVESGGGLVQAGGSLRLSCAASGRTFVPDVMGWYRQAPGKERELVAAITSGGSTYYADSVKGRFTISRDNAKNTVYLQMNSLKPEDTAVYYCAKRTSWKYGYWGQGTQVTVSS | high polyreactivity |
| QVQLVESGGGLVQAGGSLRLSCAASGRTFVPNALGWYRQAPGKERELVAALSWSGDSTYYADSVKGRFTISRDNAKNTVYLQMNSLKPEDTAVYYCAADPFFGVSIGGLKYHFDYWGQGTQVTVSS | low polyreactivity |
| QVQLVESGGGLVQAGGSLRLSCAASGRTFVPNAMGWYRQAPGKERELVAAISDSGGSTYYADSVKGRFTISRDNAKNTVYLQMNSLKPEDTAVYYCATDVTTYVGWEHGFNYWGQGTQVTVSS | low polyreactivity |
| QVQLVESGGGLVQAGGSLRLSCAASGRTFVPYAMGWYIQAPGKEREFVAAISSRVGSTYYADSVKGRFTISRDNAKNTVYLQMKSLKPEDTAVYYCNAPFKPAGFYSAWKYDYWGQGTQVSVSS | low polyreactivity |
| QVQLVESGGGLVQAGGSLRLSCAASGRTFVPYAMGWYRQAHGKERELVAAIDKSDGSTYYADSVKGRFTISRDNAKNTVYLKMNSLKPEDSAVYFCNAEGYTYRYYTIYNYCGQGTQVTVSS | high polyreactivity |
| QVQLVESGGGLVQAGGSLRLSCAASGRTFVPYAMGWYRQAPGKEREFVAAISSRVGSTYYADSVKGRFTISRDNAKNTVYLQMNSLKQEDTAVYYCNAPFKPAGFYSAWKYDYWGQGTQVTVSS | low polyreactivity |
| QVQLVESGGGLVQAGGSLRLSCAASGRTFVPYAMGWYRQAPGKERELVAAISSGGDTNYADSVKGRFTISRDNAKNTVYLQMNSLKPEDTAVYYCAVGGAGSDDYLGQGTQVTVSS | low polyreactivity |
| QVQLVESGGGLVQAGGSLRLSCAASGRTFVPYAMGWYRQAPGKERELVASITRSGGRTYYADSVKGRFTISRDNAKNTVYLQMNSLKPEDTAVYYCAVDWSVYYRTYDYWGQGTQVTVSS | high polyreactivity |
| QVQLVESGGGLVQAGGSLRLSCAASGRTFVPYAMGWYRQAPGKERELVASITWRGGRTYYADSVKGRFTISRDNAKNTVYLQMNSLKPEDTAVYYCAAVGGYASYFHLYYYWGQGTQVTVSS | high polyreactivity |
| QVQLVESGGGLVQAGGSLRLSCAASGRTFVQNAMGWYRQAPGKERELVASIRYRDGSTYYADSVKGRFTISRDNAKNTVYLQMNSLKPEDTAVYYCAVRVTSDYYASRYYYWGQGSQVTVSS | high polyreactivity |
| QVQLVESGGGLVQAGGSLRLSCAASGRTFVRNAMGWYRQAPGKERELVAAISKSGGITYYADSVKGRFTISRDTAKNTVYLQMNSLKPEDTAVYYCAKRTSYYRSGWSHYGYWGQGTQVTVSS | high polyreactivity |
| QVQLVESGGGLVQAGGSLRLSCAASGRTFVRNAMGWYRQAPGKVRELVAAISSIGDSTYYADSVKGRFTISRDNAKNTVYLQMNSLKPEDTAVYYSNARGYVYYRMGYWGQGTQETVSS | low polyreactivity |
| QVQLVESGGGLVQAGGSLRLSCAASGRTFVRNTMGWYRQAPGKERELVAAISGGGSTYYADSVKGRFTISSDNAKKTVYLQMNSLKPEDTAVYYCAATTRRQGGKRFDYWGQGTQVTVSS | high polyreactivity |
| QVQLVESGGGLVQAGGSLRLSCAASGRTFVRYAMGWYRQAPGKERELVAAISWSGGSTYYADSVKGRFTISRDNAKNTVYLQMNSLKPEDTAVYYCATLSAWKASSYDYWGQGTQVTVSS | high polyreactivity |
| QVQLVESGGGLVQAGGSLRLSCAASGRTFVRYAMGWYRQAPGQERELVARITSRGTSTYYADSVKGRFTISRDNAKNTVYLQKNSLKPEDTAVYYCNKVRTFRDKSRYDYWGQGTQVTVSS | low polyreactivity |
| QVQLVESGGGLVQAGGSLRLSCAASGRTFVSNAMGWYRQAPGKERELVAAINSGGSTTYADSVKGRFTISRDNAKNTVYLKMNSLIPEDTAVYYFARRSRYSKGYDYWGQGTQVTVSS | low polyreactivity |
| QVQLVESGGGLVQAGGSLRLSCAASGRTFVSYVMGWYRQAPGKERAFVAAISRSGGNTYYADSVKGRFTMSRDNAKNTVYLQMNSLKPEDTAVDYCAAKLGPLVYDHDYWGQGTQVTVSS | high polyreactivity |
| QVQLVESGGGLVQAGGSLRLSCAASGRTFVTNAMGWYRQAPGKERELVATINWSGGRTHYADSVKGRFTISRDNAKNTVYLQMNSLKPEDTEVYYCAKASSRRYWTIRDGDYWGQGTQVTVSS | low polyreactivity |
| QVQLVESGGGLVQAGGSLRLSCAASGRTFVVKAMGWYRQAPGKERELVAAITRRGGITYYADSVKGRITISRDNAKNTVYLQMNSLKPEDTAVSYCAADRSYYPDTRTTSGYNYWGQGTQVTVSS | low polyreactivity |
| QVQLVESGGGLVQAGGSLRLSCAASGRTFVVNYMGWYRQAPGKERELVATINVSGGSTSYADSVKGRFTISRDNAKNTVYLQMNSLKPEDTAVYYCNVDTYVEYPHDYWGQGTQVTVSS | low polyreactivity |

| Sequence | polyreactivity (PSR sort gate) |
| --- | --- |
| QVQLVESGGGLVQAGGSLRLSCAASGRTFVVYAMGWYGQAPGKERELVAGITTRVGSTYYADSVKGRFTISRDNAKNTVYLQMNSLKPEDTAVYYCAARGSRYVGRVRYDYWGQGTQVTVSS | high polyreactivity |
| QVQLVESGGGLVQAGGSLRLSCAASGRTFVVYAMGWYRQAPGKERELVAAISGRGGRTYYADSVKGRFTISRDNAKNTVYLQMNSLKPEETAVYYCATRSSVPKRFTRYGYWGHGTQVTVSS | high polyreactivity |
| QVQLVESGGGLVQAGGSLRLSCAASGRTFVVYAMGWYRQAPGKERELVAVISFTGDSTFYADSVKGRFTISRDNAKNTVYLQMNSLKPEDTAVYYCAADLDWSPHFGLPYDYWGQGTQVTVSS | low polyreactivity |
| QVQLVESGGGLVQAGGSLRLSCAASGRTFVVYAMGWYRQAPGKERELVAVISFTRDSTFYADSVKGRFTISRDNAKNTVYLQMNSLKPEDTAVYYCAADFRRVFSKYSYYLYFEFDYWGQGTQVTVSS | low polyreactivity |
| QVQLVESGGGLVQAGGSLRLSCAASGRTFVVYTMGWYRQAPGKERELVAAISWRGGTTYYADSVKGRFTISRDNAKNTVYLQMNSLKPEDTAVYYCAARVVYYYRERYYWGQGTQVTVSS | high polyreactivity |
| QVQLVESGGGLVQAGGSLRLSCAASGRTFVWNVMGWYRKAPGKEREFVAAISGGSTYYADSVKGRFTISRDNAKNTVYLQMNRLKPEDTAVNYCAAASKLHPRYEYWGQGTQVTVSS | low polyreactivity |
| QVQLVESGGGLVQAGGSLRLSCAASGRTFVYNAKGWYRQAPGKEREVVAGITGSGDSTYYADSVKGRFTISRDNAKNTVYLQMNSLKPEDTAVYYCNQLVEEDYWGQGTQVTVSS | low polyreactivity |
| QVQLVESGGGLVQAGGSLRLSCAASGRTFVYNAMGWYRQAPGKERELVAAIDGGGDRTYYADSVKGRFTISRDNAKNTVYLQMNSLKPEDTAVYYCARDPVVTYYYSYPEGDYWGQGTQVTVSS | low polyreactivity |
| QVQLVESGGGLVQAGGSLRLSCAASGRTFVYNAMGWYRQAPGKERELVAAIRFSGGRTYYADSVKGRFTISRDNAKNTVYLQMNSLKPEDTAVYYCAVTGELTLYTWRSFEYYYWGQGTQVTVSS | low polyreactivity |
| QVQLVESGGGLVQAGGSLRLSCAASGRTFVYNAMGWYRQAPGKERELVAAISSSGGSTRYADSVKGRFTISRDNAKNTVYLQMNSLKPEDTAVYYCNRLRYSNRYDTWGQGTQVTVSS | high polyreactivity |
| QVQLVESGGGLVQAGGSLRLSCAASGRTFVYTMGWYRQAPGKERELVAAIRYSGGRTYYADSVKGRFTISRDNAQNTVYLQMNSLKPEDTAVYYCAARNYATGVRYDYWGQVTQVTVSS | high polyreactivity |
| QVQLVESGGGLVQAGGSLRLSCAASGRTFVYYAMAWYRQAPGKERELVAAISRTGVNTYYADSVKGRFTISRDNAKNTVYLQMNSQKPEDTAVYYCNKVYRADRSSVPYEYWGQGTQVTVSS | high polyreactivity |
| QVQLVESGGGLVQAGGSLRLSCAASGRTFVYYAMGWYRQAPGKEREFVATITSSGGSTYYADSVKGRFTISRDNAKNTVYLQMNSLKPEDTAVYYCNADSVSSPPYYDYWGQGTQVTVSS | high polyreactivity |
| QVQLVESGGGLVQAGGSLRLSCAASGRTFVYYAMGWYRQAPGKERELVAAIRSGGSTNYADSVKGRFTISRDNAKNTVYLQMNSLKPEDTAVYYCNAVHYYYYKGDYWGQGTQVTVSS | high polyreactivity |
| QVQLVESGGGLVQAGGSLRLSCAASGRTFVYYAMGWYRQAPGKERELVAAISGSGGSTYYADSVKGRFTISRDNAKNTVYLQMNSLKPEDTAVYYCNVRGPGFYWNWGQSHYYGYDYWGQGTQVTVSS | high polyreactivity |
| QVQLVESGGGLVQAGGSLRLSCAASGRTFVYYAMGWYRQAPGKERELVAAITSGGNTYYADSVKGRFTISRDNAKNTDYLQMNSLKPEDTAVYYCAAKRRRSFDYWGQGTQVTVSS | high polyreactivity |
| QVQLVESGGGLVQAGGSLRLSCAASGRTFVYYAMGWYRQAPGKERELVARISSSGGRTSYADSVKGRFTISRDNAKNTVYLQMNRLKPEDTAVYYCNAGRYRAGGWGVGEGYWGQGTQVTVSS | high polyreactivity |
| QVQLVESGGGLVQAGGSLRLSCAASGRTFVYYDMGWYRQAPGKERELVASISSGDSTNYADSVKGRFTISRDNAKNTVYLQMNSLKPEDTAVYDCAARGYLRGEQLYVFIRYDYWGQGTQVTVSS | low polyreactivity |
| QVQLVESGGGLVQAGGSLRLSCAASGRTFVYYTMGWYRQAPGKERELVAGIRRRGGRTYYADSVKGRFTISRDNAKNTVYLQMNSLKPEDTAVYYCAAQTRYQGYQEYYYWGQGTQVTVSS | high polyreactivity |
| QVQLVESGGGLVQAGGSLRLSCAASGRTFWFNHMGSYRQAPGKERELVAAITWNGGSTYYADSVKGRFTISRDNAKNTVYLQMNSLKPEATAVYYCARTSYARYRNGWTYDHWGQGTQVTVSS | low polyreactivity |
| QVQLVESGGGLVQAGGSLRLSCAASGRTFWGYGMGWYRQAPGKERELVATISSGGSTYYADSVKGRFTISRDNAKNTVYLQMNSLKPEDTAVYYCAARPPRTYWRYQSDYWGQGTQVTVSS | high polyreactivity |
